Read-outs that look alike come from different tables or passages of the source.
Tests used:
[1] = target: the molecule itself; assay: dynamic light scattering
[2] = target: T1, diol dehydratase PduCDE (Salmonella enterica, UniProt P37450 1-554; O31041 1-224; O31042 1-173); assay: time-resolved fluorescence anisotropy
T1 sequence (looked up) 1: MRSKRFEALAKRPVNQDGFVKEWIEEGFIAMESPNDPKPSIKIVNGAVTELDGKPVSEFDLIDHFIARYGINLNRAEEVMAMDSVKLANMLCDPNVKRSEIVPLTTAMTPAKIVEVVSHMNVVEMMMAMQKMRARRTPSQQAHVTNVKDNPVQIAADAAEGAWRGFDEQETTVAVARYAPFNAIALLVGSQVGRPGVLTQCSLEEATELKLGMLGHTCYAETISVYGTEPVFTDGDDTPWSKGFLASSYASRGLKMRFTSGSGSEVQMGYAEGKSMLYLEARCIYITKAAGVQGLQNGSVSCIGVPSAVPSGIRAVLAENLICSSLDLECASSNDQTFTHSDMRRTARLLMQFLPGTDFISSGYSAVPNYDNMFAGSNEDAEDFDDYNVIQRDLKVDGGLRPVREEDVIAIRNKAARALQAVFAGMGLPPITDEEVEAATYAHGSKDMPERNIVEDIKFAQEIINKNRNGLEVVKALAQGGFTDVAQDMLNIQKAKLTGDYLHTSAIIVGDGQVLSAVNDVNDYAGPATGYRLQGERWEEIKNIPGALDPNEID
T1 sequence (looked up) 2: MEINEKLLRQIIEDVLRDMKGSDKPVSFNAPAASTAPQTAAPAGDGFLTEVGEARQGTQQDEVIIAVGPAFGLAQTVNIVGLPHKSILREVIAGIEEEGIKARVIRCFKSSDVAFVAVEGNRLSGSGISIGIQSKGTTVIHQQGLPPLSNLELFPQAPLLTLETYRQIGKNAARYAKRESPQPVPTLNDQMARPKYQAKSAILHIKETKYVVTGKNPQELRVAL
T1 sequence (looked up) 3: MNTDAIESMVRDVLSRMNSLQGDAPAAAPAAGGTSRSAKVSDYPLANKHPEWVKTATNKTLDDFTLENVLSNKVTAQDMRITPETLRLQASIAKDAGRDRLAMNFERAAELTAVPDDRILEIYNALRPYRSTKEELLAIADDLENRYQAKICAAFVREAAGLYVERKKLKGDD

[3] = target: T1, diol dehydratase PduCDE; assay: time-resolved fluorescence anisotropy; remark: listed apart in the source

B1: shell protein PduB (N-terminal truncated) (natural protein, Salmonella enterica, UniProt P37449 38-270, looked up)
chain: MAEKSCSLTEFVGTAIGDTLGLVIANVDTALLDAMKLEKRYRSIGILGARTGAGPHIMAADEAVKATNTEVVSIELPRDTKGGAGHGSLIILGGNDVSDVKRGIEVALKELDRTFGDVYGNEAGHIELQYTARASYALEKAFGAPIGRACGIIVGAPASVGVLMADTALKSANVEVVAYSSPAHGTSFSNEAILVISGDSGAVRQAVTSAREIGKTVLATLGSEPKNDRPSYI
binding result [1]: binds | binding result [2]: binds

B2: shell protein PduB’M38L (natural protein, Salmonella enterica, UniProt P37449 1-270, looked up)
chain: MSSNELVEQIMAQVIARVATPEQQAIPGQPQPIRETALAEKSCSLTEFVGTAIGDTLGLVIANVDTALLDAMKLEKRYRSIGILGARTGAGPHIMAADEAVKATNTEVVSIELPRDTKGGAGHGSLIILGGNDVSDVKRGIEVALKELDRTFGDVYGNEAGHIELQYTARASYALEKAFGAPIGRACGIIVGAPASVGVLMADTALKSANVEVVAYSSPAHGTSFSNEAILVISGDSGAVRQAVTSAREIGKTVLATLGSEPKNDRPSYI
binding result [3]: binds
